Measurements published in the DeepSol protein solubility set.

Assay: soluble on expression in E. coli; label from the status in PepcDB or PDB records

Sequence	soluble on expression in E. coli
MGSDKIHHHHHHMEEYFNGLLKEVDQRMATTAPGMDGKEVIGVCREMVSYLKGKNRELKEYALAHPFAGDAKEILYFKYYKPALTGRLLYYYRVYQIESGCPACLRVAEPYYRKAMERAERMMERYLPFYQYYHSGATYRDSYYFLRAKGELSPESGSFVLDEEAEFSTGYDILAARLISVEMLLVHLSRRMERAAQGTETEAVPEKEHRWTNTKVAAILLVYGIHVTGSVDEGNAEIGELAALFEKHFHVDLGNVYHAFGRLRGQQNPTAFLDEMKERLLKKMRDMDSR	not soluble
MSRIVNVKLSLKRYEYEKPFHITGSVSSESRNVEVEIVLESGVKGYGEASPSFRVNGERVEALLAIENAVREMITGIDVRNYARIFEITDRLFGFPSLKAAVQFATLDALSQELGTQVCYLLGGKRDEIETDKTVGIDTVENRVKEAKKIFEEGFRVIKIKVGENLKEDIEAVEEIAKVTRGAKYIVDANMGYTQKEAVEFARAVYQKGIDIAVYEQPVRREDIEGLKFVRFHSPFPVAADESARTKFDVMRLVKEEAVDYVNIKLMKSGISDALAIVEIAESSGLKLMIGCMGESSLGINQSVHFALGTGAFEFHDLDSHLMLKEEVFRGKFIQDGPRMRVKDQ	soluble
MDYKTCPFHLVFLYSINPREPRLRKKIYYMMETESRLVVSHALIMYDYNQEGELPRMHGGYLKRFAKRATKRPDPFFQPTQIHDIDNDVSDMSECEKECPFAVPAQAADDGSLYLQLLDMEFWNDRNRQLHFLVNKPSLIESLGCLNNRVPALPPATTGKAAFVFFIDGLEVDARNLTCDGLVPWSENTSTNPHGITKRPKSAKQALALNREGQLRIWKTPSSHRSDLIEFQLHVYTATLPRCPRLRKKVTYVLKNGHQIGNAMIIYWYTEPGEMPAPVNVSTMSSAQEYSLQRLPPHIREDVLRLLARMTPAEVAKVILEKYGIQVNTKMLYYVRRREIMAATDGIRDAEDDHDPYELKNEMIVSAAAGDFVDDWTTDTAGASAEASEGGSRKKNVHLEEMLDERELQVSHTEEIQQPSSSQQQIQLPYRKAKYQEPKNFGQQSSGLPLSQSGMARGTSRNEALFRIAKNSFGSATDNETFDLLFKMLFEKSEHRLLQIVNHTFGVEIMAGEEMDNGEMHLHMAPDGAIVEEIVEEEVIGTVGDDVNLEEEVHENEPKVYTGEKQINDVLEQVVVEEPNHHDDHPPHELLEEDALVNPDDVIVDPNQLIIHDDDDQRQQNIQ	not soluble
MKSIHYTKAVSGTERMTFGSNDEWERIVEEMLEFEKICIPFHSTSHSPDILFKLHGRTNEKNLMIVGIACKGRWSRNGIRWNEILEEAHKFLKPVHDQVLTSHPTWHCMLIIMSTQLATNVSEDLNHSSRCYSFGDSVGDFVIPHNCELVILSEADVENFIGKDILSNLRNAFKAVDNPHSRNIGISTLQKIVLLLSKNI	not soluble
MNQINIEIAYAFPERYYLKSFQVDEGITVQTAITQSGILSQFPEIDLSTNKIGIFSRPIKLTDVLKEGDRIEIYRPLLADPKEIRRKRAAEQAAAKDKEKGA	soluble
MMTGLTLLSCSTENDEFKKELPPTEQPSEPTGALLERFSIDQLPAKTIYALGESIDLTGLKVTGEYDDGKQRSVNVAPKQISGFSSSVPVDKQEVTITIEGKQKSFTIQVAPVRVENGVLTEVLKGYDEIILPNSVKSIPKNAFNGSKINKVTLNEGLKSIGDMAFFNSTIQEVIFPSTLEQLEENIFYYCYHLKKADLSRTKLTKLPASTFVYAGVEEVLLPATLTEIDAQAFLKTSQLKTIEIPENVRTIGLEAFRESSITTVKLPNGVTNIAQRAFYYCPELTEVTTYGTVFNDDPEAMIHPYCLEGCPQLTRFEIPQSIRILGQGLLGGNRKVTQLTIPANVTQINFSAFNNTGIKEVKVEGITPPQVFEKIWYGFPDDITVIRVPAESVEKYKTAAGWQDYTNKIQASLEHHHHHH	soluble
MATGGLAIIQSMKHKLPPSERKLADYILAHPHKAIESTVNEISALANSSDAAVIRLCKSLGLKGFQDLKMRVAGDLAKPTFQGYRDIVPHEPLPSISEKTAGNAIQAI	soluble
SLHVTELTAFLVPLPLKREIKHASFTRTESINLLIRCKLSNGTIGWGEGVPRPYVTGETPEGCLQQLSQSNLHPALMQSASNWPEVIAICDALQFNNDSDDSRGCGSNSLRCAVELSLLDAFGRHFGQPVSAVVPHVAEAAEIHVRQPRVRYSTTITSSGAKSERISALKMRAYGFAQCKIKVGVDGQDDPSRVARIRRWIGGGVDLRLDANEAWRPEEVAEKMRPLREFGVTCIEQPVAHDQVDALASLRESIGVPIMLDESLTSRMDAERAIELGTCDLFNLRLSKCGGFLSCLRLAALARASGLGYQLGCHPGESGVLSAAGRHWASSVRDIRYLEGSYDRHLLTTLPTQEDITFRYGGWAPALDSPGLGVTIREDWLRQNAKAERTFVVEAQ	soluble
MGSDKIHHHHHHMGSSPARMSSGAPAPRVEVECLKAYSAPLEGRRGLLRLDFNENTIGPSPRVLEALRAIPADQIAVYPEYDGLREAVVANLSNRDQGRPGLTQPLSPSQIGLFNGVDAAIHAIFHAYGDRGDRLLTTSPTFGYYTPCAQMQGMKILAIPYEGSDFRFPLQVIRTLLQQKRPRLLLLCNPNNPTGTRLAPEQILELAVAAPETLVVVDELYEAFTGDSVLPQADFSVTPNLLVLRSLAKTAGLAGLRMGFAIGSADVIDRVSRVTGPYDINSFAVTAAFAALDDQAYVDAYVADVLKARDWISARLDASGVPYHLDGGNYLLIWPQQQPTEVEAALRKRGILVRLMTGKPLIDGSLRVSIGTIEQMQQFWQAFATVESLAA	not soluble
MINAKVHVAVPTAFYADESLNISATLAHAQYLLDHQIESVMLCGSTGEQHSLDLDEKIALARAVDRAEWPQGAEIIFGVSAIRQSHAVRLAQVVAQCERIDAILVGFPPYIRPTQDQARRFVTAITQTAGKPAIIYNNPARTGFDASASTLAQLCMLPDVIGVKDPGGAPKLAEVSREIAPFRARYYAGGELDLHAKVAHGYTYLSSIVGNIAPEETVAWFNALRHGEEYESSSRLQELIDQLFAHHPIQFLKEKISTQEGINMGSCRLPLGPIAD	not soluble
MGSDKIHHHHHHMKLAYFVIPHIGGTYSVFKHLRKGLAAYDIDVRWLGVCKETYGLPLDLQGETAFGQLLRMPVNLSERDCAARMAAAIENGGFDGVIVNVLGDQLQTNIARYLPEGILRILVVHNISPGTYAAARSVRDYAHVTIGVSERCRADLVARNGFPKDRTYAIPNAVDSDAFRSQAVRRVNRGPELKVLFVGRIEDASKGVMWLREILDGSPEAVRLTIVGDGPDMGKLRRRLASHDDRVSYAGSVQLSDIPVIMASHDVLIMPSRFEGLGMTMIEAMAGGCVPVVSHIRGVTDTIVEPGRNGFLFPIGNYTAAANAIGRLHADRDLLERMSIAGKEMVLNRFSIERMAARYNEVIAMTLNDRPGLSTVLRMEDWSIPAGLRPGLRTYLPLPLKNWLRVVRERL	not soluble
MGSDKIHHHHHHMATRATQISTLVEEIANNPNLKEDLKILPSNYTFEVPKTIWKIRSTESKYVALQFPEGLIMYACVIADILEKYTGCDTVIMGDVTYGACCVDDYTAKSMGCDLLVHYGHSCLVPIQNTDGIAMLYVFVNIHINLSHLIDCVKENFQGKRLVVVSTVQFIPSLQTLRTTFNKDDSSIRIDIPQCKPLSPGEVLGCTSPRLDASKYDAIVYLGDGRFHLESIMIHNPEIEAFQYDPYSRKLTREFYDHDLMRKNRIGSIEIARKCTTFGLIQGTLGRQGNLKVVEELEAQLERKGKKFLRVLLSEIFPEKLAMFPEVDCWVQVACPRLSIDWGTQFPKPLLYPFELAVALDNISVPSDHWPMDYYSNDSLGPWTNNNEANRPKREKRKPHIVVRTEAS	not soluble
MGSDKIHHHHHHMPFIIDYQCLCAINSEIKMFSGEQLGQAISEAIKRKNVSQKEVADHFGVKQPSVSGWIKNGRIDKKHLDKLIDYFSDVVTPSHFGIETFRVLKSNEQSSIRFPRLNAEATCGAGTINDHYIEVVDYVTVAAAWAREKLGGNLNKIQVITARGDSMEPTIENGDVMFVDTAVEAFDGDGLYLLWYIDGLKAKRLQSTVGGGLMIISDNSSYRTETVRGEDLNAVRIIGRIRGAWRLSQF	not soluble
EKKPYIISNVGMTLDGKLATINNDSRISCEEDLIRVHKIRANVDGIMVGIGTVLKDDPRLTVHKIKSDRNPVRIVVDSKLRVPLNARVLNKDAKTIIATTEDTNEEKEKKIKILEDMGVEVVKCGRGKVDLKKLMDILYDKGIKSILLEGGGTLNWGMFKEGLVDEVSVYIAPKIFGGKEAPTYVDGEGFKTVDECVKLELKNFYRLGEGIVLEFKVKK	soluble
